Data on 15 molecules can be found in patent US20160053277A1, “Compositions Having Dicamba Decarboxylase Activity and Methods of Use” (PIONEER HI-BRED INTERNATIONAL, INC., priority 2013, published 2016).

Sequences and labels used below:
B1: 396 (protein)
chain: MAQGKVALEEHFAIPETLQDAAGFVPGEYWKELQHRLLDIQDTRLKLMDKHEIETMILSLAAPAVQAIPDRRKAIEIARRANDFLAEEVAKRPDRFLAFAALPLQDPDAATEELQRTVNDLGFVGAMVNGFSQEGDGQTPLYYDLPQYRPFWGEVEKLDVPFYLHPRNPLPQDSRIYDGHPWLLGPTWAFAQETAVHALRLMASGLFDEHPRLNIILGHMGEGLPYMMYRIDHRIGWVKAPPDYAAKRRFMDYFNENFHITTSGNFRTQTLIDAILEIGADRILFSTDWPFENIDHAADWFNATSIAEADRVKIGRTNARRLFKLDGR
modifications: Dicamba decarboxylase variant
B2: 406 (protein)
chain: MAQGKVALEEHFAIPETLQDAAGFVPGDYWKELQHRLLDIQDQRLKLMDKHEIETMILSLAAPAVQAIPDRRKAIEIARRANDFLAEEVAKRPDRFLAFAALPLQDPDAATEELQRCVNDLGFVGAMVNGFSQEGDGQTPLYYDLPQYRPFWGEVEKLDVPFYLHPRNPLPQDSRIYDGHPWLLGPTWAFAQETAVHALRLMASGLFDEHPRLNIILGHMGEGLPYMMYRIDHRIAWVKAPPDYAAKRRFMDYFNENFHITTSGNFRTQTLIDAILEIGADRILFSTDWPFENIDHAADWFNATSIAEADRVKIGRTNARRLFKLDGR
modifications: Dicamba decarboxylase variant
B3: 408 (protein)
chain: MAQGKVALEEHFAIPETLQDAAGFVPGDYWKELQHRLLDIQDTRLKLMDKHEIGTMILSLAAPAVQAIPDRRKAIEIARRANDFLAEEVAKRPDRFLAFAALPLQDPDAATEELQRCVNDLGFVGAMVNGFSVEGDGQTPLYYDLPQYRPFWGEVEKLDVPFYLHPRNPLPQDSRIYDGHPWLLGPTWAFAQETAVHALRLMASGLFDEHPRLNIILGHMGEGLPYMMYRIDHRIAWVKAPPDYPAKRRFMDYFNENFHITTSGNFRTQTLIDAILEIGADRILFSTDWPFENIDHAAAWFNATPIAEADRVKIGRTNARRLFKLDGR
modifications: Dicamba decarboxylase variant
B4: 401 (protein)
chain: MAQGKVALEEHFAIPETLQDAAGFVPGDYWKELQHRLLDIQDTRLKLMDKHEIETMILSLAAPAVQAIPDRRKAIEIARRANDFLAEEVAKRPDRFLAFAALPLQDPDAATEELQRCVNDLGFVGALVNGFSQEGDGQTPLYYDLPQYRPFWGEVEKLDVPFYLHPRNPLPQDSRIYDGHPWLLGPTWAFAQETAVHALRLMASGLFDEHPRLNIILGHMGEGLPYMMYRIDHRIAWVKAPPDYAAKRRFMDYFNENFHITTSGNFRTQTLIDAILEIGADRILFSTDWPFENIDHAADWFNATSIAEADRLKIGRTNARRLFKLDLR
modifications: Dicamba decarboxylase variant
B5: 407 (protein)
chain: MAQGKVALEEHFAIPETLQDAAGFVPGDYWKELQHRLLDIQDTRLKLMDKHEIETMILSLAAPAVQAIPDRRKAIEIARRANDFLAEEVAKRPDRFLAFAALPLQDPDAATEELQRCVNDLGFVGAMVNGFSQEGDGQTPLYYDLPQYRPFWGEVEKLDVPFYLHPRNPLPQDSRIYDGHPWLLGPTWAFAQETAVHALRLMASGLFDEHPGLNIILGHMGEGLPYMMYRIDHRIAWVKAPPDYPAKRRFMDYFNENFHITTSGNFRTQTLIDAILEIGADRILFSTDWPFENIDHAAAWFNATSIAEADRLKIGRTNARRLFKLDGR
modifications: Dicamba decarboxylase variant
B6: 399 (protein)
chain: MAQGKVALEEHFAIPETLQDAAGFVPGDYWKELQHRLLDIQDTRLKLMDKHEIETMILSLAAPAVQAIPDRRKAIEIARRANDFLAEEVAKRPDRFLAFAALPLQDPDAATEELQRCVNDLGFVGAMVNGFSVEGDGQTPLYYDLPQYRPFWGEVEKLDVPFYLHPRNPLPQDSRIYDGHPWLLGPTWAFAQETAVHALRLMASGLFDEHPRLNIILGHMGEGLPYMMYRIDHRIGWVKAPPDYAAKRRFMDYFNENFHITTSGNFRTQTLIDAILEIGADRILFSTDWPFENIDHAADWFNATSIAEADRVKIGRTNARRLFKLDGR
modifications: Dicamba decarboxylase variant
B7: 398 (protein)
chain: MAQGKVALEEHFAIPETLQDAAGFVPGDYWKELQHRLLDIQDTRLKLMDKHEIETMILSLAAPAVQAIPDRRKAIEIARRANDFLAEEVAKRPDRFLAFAALPMQDPDAATEELQRCVRDLGFVGALVNGFSQEGDGQTPLYYDLPQYRPFWGEVEKLDVPFYLHPRNPLPQDSRIYDGHPWLLGPTWAFAQETAVHALRLMASGLFDEHPRLNIILGHMGEGLPYMMYRIDHRIGWVKAPPDYAAKRRFMDYFNENFHITTSGNFRTQTLIDAILEIGADRILFSTDWPFENIDHAADWFNATSIAEADRLKIGRTNARRLFKLDLR
modifications: Dicamba decarboxylase variant
B8: 409 (protein)
chain: MAQGKVALEEHFAIPETLNDAAGFVPSEYWKELQHRLLDIQDTRLKLMDKHEIGTMILSLAAPAVQAIPDRRKAIEIARRANDFLAEEVAKRPDRFLAFAALPLQDPDAATEELQRCVNDLGFVGAMVNGFSQEGDGQTPLYYDLPQYRPFWGEVEKLDVPFYLHPRNPLPQDSRIYDGHPWLLGPTWAFAQETAVHALRLMASGLFDEHPRLNIILGHMGEGLPYMMYRIDHRIAWVKAPPDYPAKRRFMDYFNENFHITTSGNFRAQTLIDAILEIGADRILFSTDWPFENIDHAADWFNATSIAEADRLKIGRTNARRLFKLDGR
modifications: Dicamba decarboxylase variant
B9: 404 (protein)
chain: MAQGKVALEEHFAIPETLQDAAGFVPGDYWKELQHRLLDIQDTRLKLMDKHEIETMILSLAAPAVQAIPDRRKAIEIARRANDFLAEEVAKRPDRFLAFAALPLQDPDAATEELQRTVNDLGFVGAMVNGFSQEGDGQTPLYYDLPQYRPFWGEVEKLDVPFYLHPRNPLPQDSRIYDGHPWLLGPTWAFAQETAVHALRLMASGLFDEHPRLNIILGHLGEGLPYMMYRIDHRIGWVKAPPDYPAKRRFMDYFNENFHITTSGNFRTQTLIDAILEIGADRILFSTDWPFENIDHAAAWFNATSIAEADRVKIGRTNARRLFKLDLR
modifications: Dicamba decarboxylase variant
B10: 400 (protein)
chain: MAQGKVALEEHFAIPETLQDAAGFVPGDYWKELQHRLLDIQDTRLKLMDKHEIETMILSLAAPAVQAIPDRRKAIEIARRANDFLAEEVAKRPDRFLAFAALPLQDPDAATEELQRTVNDLGFVGAMVNGFSVEGDGQTPLYYDLPQYRPFWGEVEKLDVPFYLHPRNPLPQDSRIYDGHPWLLGPTWAFAQETAVHALRLMASGLFDEHPRLNIILGHLGEGLPYMMYRIDHRIAWVKAPPDYAAKRRFMDYFNENFHITTSGNFRTQTLIDAILEIGADRILFSTDWPFENIDHAADWFNATSIAEADRLKIGRTNARRLFKLDLR
modifications: Dicamba decarboxylase variant
B11: 403 (protein)
chain: MAQGKVALEEHFAIPETLQDAAGFVPGDYWKELQHRLLDIQDTRLKLMDKHEIETMILSLAAPAVQAIPDRRKAIEIARRANDFLAEEVAKRPDRFLAFAALPLQDPDAATEELQRCVNDLGFVGAMVNGFSVEGDGQTPLYYDLPQYRPFWGEVEKLDVPFYLHPRNPLPQDSRIYDGHPWLLGPTWAFAQETAVHALRLMASGLFDEHPRLNIILGHMGEGLPYMMYRIDHRIAWVKAPPDYAAKRRFMDYFNENFHITTSGNFRTQTLIDAILEIGADRILFSTDWPFENIDHAADWFNATSIAEADRLKIGRTNARRLFKLDGR
modifications: Dicamba decarboxylase variant
B12: 402 (protein)
chain: MAQGKVALEEHFAIPETLQDAAGFVPGDYWKELQHRLLDIQDTRLKLMDKHEIETMILSLAAPAVQAIPDRRKAIEIARRANDFLAEEVAKRPDRFLAFAALPLQDPDAATEELQRTVNDLGFVGALVNGFSQEGDGQTPLYYDLPQYRPFWGEVEKLDVPFYLHPRNPLPQDSRIYDGHPWLLGPTWAFAQETAVHALRLMASGLFDEHPRLNIILGHLGEGLPYMMYRIDHRIAWVKAPPDYAAKRRFMDYFNENFHITTSGNFRTQALIDAILEIGADRILFSTDWPFENIDHAAAWFNATSIAEADRVKIGRTNARRLFKLDLR
modifications: Dicamba decarboxylase variant
B13: 397 (protein)
chain: MAQGKVALEEHFAIPETLQDAAGFVPGDYWKELQHRLLDIQDTRLKLMDKHEIETMILSLAAPAVQAIPDRRKAIEIARRANDFLAEEVAKRPDRFLAFAALPLQDPDAATEELQRCVNDLGFVGAMVNGFSQEGDGQTPLYYDLPQYRPFWGEVEKLDVPFYLHPRNPLPQDSRIYDGHPWLLGPTWAFAQETAVHALRLMASGLFDEHPRLNIILGHLGEGLPYMMYRIDHRIAWVKAPPDYAAKRRFMDYFNENFHITTSGNFRTQTLIDAILEIGADRILFSTDWPFENIDHAADWFNATSIAEADRVKIGRTNARRLFKLDLR
modifications: Dicamba decarboxylase variant
B14: 410 (protein)
chain: MAQGKVALEEHFAIPETLQDAAGFVPGDYWKELQHRLLDIQDTRLKLMDKHEIETMILSLAAPAVQAIPDRRKAIEIARRANDFLAEEVAKRPDRFLAFAALPLQDPDAATEELQRCVNDLGFVGAMVNGFSQEGDGQTPLYYDLPQYRPFWKEVEKLDVPFYLHPRNPLPQDSRIYDGHPWLLGPTWAFAQETAVHALRLMASGLFDEHPRLNIILGHLGEGLPYMMYRIDHRIAWVKAPPDYAAKRRFMDYFNENFHITTSGNFRTQTLIDAILEIGADRILFSTDWPFENIDHAAAWFNATSIAEADRVKIGRTNARRLFKLDGR
modifications: Dicamba decarboxylase variant
B15: 405 (protein)
chain: MAQGKVALEEHFAIPETLQDAAGFVPGDYWKELQHRLLDIQDTRLKLMDKHEIETMILSLAAPAVQAIPDRRKAIEIARRANDFLAEEVAKRPDRFLAFAALPLQDPDAATEELQRCVNDLGFVGAMVNGFSQEGDGQTPLYYDLPQYRPFWGEVEKLDVPFYLHPRNPLPQDSRIYDGHPWLLGPTWAFAQETAVHALRLMASGLFDEHPRLNIILGHMGEGLPYMMYRIDHRIAWVKAPPDYAAKRRFMDYFNENFHITTSGNFRTQTLIDAILEIGADRILFSTDWPFENIDHAADWFNATSIAEADRVKIGRTNARRLFKLDLR
modifications: Dicamba decarboxylase variant

A short description of the assay: Shuffled variant libraries: 14CO2 capturing assay in 384-well format. To be noted: decarboxylation activity (carbon dioxide released) compared with unmutated backbone protein SEQ ID NO 380 (DDEC0301).
Consider B1, for which the “Fold Activity” value is recorded as 1.9.

Turning to B2, the “Fold Activity” value is recorded as 1.4.

Consider B3, for which the “Fold Activity” value is reported as 0.8.

In the case of B4, the “Fold Activity” value is 1.2.

As for B5, the “Fold Activity” value is 1.8.

Consider B6, for which the “Fold Activity” value was found to be 1.5.

As to B7, the “Fold Activity” value came to 1.0.

For B8, the “Fold Activity” value was found to be 1.5.

As to B9, the “Fold Activity” value amounted to 2.0.

In the case of B10, the “Fold Activity” value is 1.6.

For B11, the “Fold Activity” value was 1.6.

With B12, the “Fold Activity” value is reported as 1.0.

Regarding B13, the “Fold Activity” value turned out to be 1.8.

On to B14, for which the “Fold Activity” value is 1.3.

As to B15, the “Fold Activity” value is 1.6.
